# Reference: patent publication US20160244497A1 (Amgen, published 2016)
# Target: beta-klotho
# Experiment: cell-based or functional assay
row,"EC50, ELK-luciferase assay",Binder
1,7.9 nM,"PEGylated FGF21 mutant R175C (ligand, 20 kDa methoxy-PEG-maleimide on Cys 175) MHPIPDSSPLLQFGGQVRQRYLYTDDAQQTEAHLEIREDGTVGGAADQSPESLLQLKALKPGVIQILGVKTSRFLCQRPDGALYGSLHFDPEACSFRELLLEDGYNVYQSEAHGLPLHLPGNKSPHRDPAPRGPARFLPLPGLPPAPPEPPGILAPQPPDVGSSDPLSMVGPSQGCSPSYAS"
2,27.8 nM,"PEGylated FGF21 mutant D46C (ligand, 20 kDa methoxy-PEG-maleimide on Cys 46) MHPIPDSSPLLQFGGQVRQRYLYTDDAQQTEAHLEIREDGTVGGAACQSPESLLQLKALKPGVIQILGVKTSRFLCQRPDGALYGSLHFDPEACSFRELLLEDGYNVYQSEAHGLPLHLPGNKSPHRDPAPRGPARFLPLPGLPPAPPEPPGILAPQPPDVGSSDPLSMVGPSQGRSPSYAS"
3,8.3 nM,"PEGylated FGF21 mutant E91C (ligand, 20 kDa methoxy-PEG-maleimide on Cys 91) MHPIPDSSPLLQFGGQVRQRYLYTDDAQQTEAHLEIREDGTVGGAADQSPESLLQLKALKPGVIQILGVKTSRFLCQRPDGALYGSLHFDPCACSFRELLLEDGYNVYQSEAHGLPLHLPGNKSPHRDPAPRGPARFLPLPGLPPAPPEPPGILAPQPPDVGSSDPLSMVGPSQGRSPSYAS"
4,13.1 nM,"PEGylated FGF21 mutant D38C (ligand, 20 kDa methoxy-PEG-maleimide on Cys 38) MHPIPDSSPLLQFGGQVRQRYLYTDDAQQTEAHLEIRECGTVGGAADQSPESLLQLKALKPGVIQILGVKTSRFLCQRPDGALYGSLHFDPEACSFRELLLEDGYNVYQSEAHGLPLHLPGNKSPHRDPAPRGPARFLPLPGLPPAPPEPPGILAPQPPDVGSSDPLSMVGPSQGRSPSYAS"
5,4.9 nM,"PEGylated FGF21 mutant R77C (ligand, 20 kDa methoxy-PEG-maleimide on Cys 77) MHPIPDSSPLLQFGGQVRQRYLYTDDAQQTEAHLEIREDGTVGGAADQSPESLLQLKALKPGVIQILGVKTSRFLCQCPDGALYGSLHFDPEACSFRELLLEDGYNVYQSEAHGLPLHLPGNKSPHRDPAPRGPARFLPLPGLPPAPPEPPGILAPQPPDVGSSDPLSMVGPSQGRSPSYAS"
6,10 nM,"PEGylated FGF21 mutant R126C (ligand, 20 kDa methoxy-PEG-maleimide on Cys 126) MHPIPDSSPLLQFGGQVRQRYLYTDDAQQTEAHLEIREDGTVGGAADQSPESLLQLKALKPGVIQILGVKTSRFLCQRPDGALYGSLHFDPEACSFRELLLEDGYNVYQSEAHGLPLHLPGNKSPHCDPAPRGPARFLPLPGLPPAPPEPPGILAPQPPDVGSSDPLSMVGPSQGRSPSYAS"

# More lines, now with the values behind:
row,Binder,"EC50, ELK-luciferase assay"
1,"PEGylated FGF21 mutant N121C (ligand, 20 kDa methoxy-PEG-maleimide on Cys 121) MHPIPDSSPLLQFGGQVRQRYLYTDDAQQTEAHLEIREDGTVGGAADQSPESLLQLKALKPGVIQILGVKTSRFLCQRPDGALYGSLHFDPEACSFRELLLEDGYNVYQSEAHGLPLHLPGCKSPHRDPAPRGPARFLPLPGLPPAPPEPPGILAPQPPDVGSSDPLSMVGPSQGRSPSYAS",9.2 nM
2,"PEGylated FGF21 mutant Y179C (ligand, 20 kDa methoxy-PEG-maleimide on Cys 179) MHPIPDSSPLLQFGGQVRQRYLYTDDAQQTEAHLEIREDGTVGGAADQSPESLLQLKALKPGVIQILGVKTSRFLCQRPDGALYGSLHFDPEACSFRELLLEDGYNVYQSEAHGLPLHLPGNKSPHRDPAPRGPARFLPLPGLPPAPPEPPGILAPQPPDVGSSDPLSMVGPSQGRSPSCAS",287 nM
3,"PEGylated FGF21 mutant D79C (ligand, 20 kDa methoxy-PEG-maleimide on Cys 79) MHPIPDSSPLLQFGGQVRQRYLYTDDAQQTEAHLEIREDGTVGGAADQSPESLLQLKALKPGVIQILGVKTSRFLCQRPCGALYGSLHFDPEACSFRELLLEDGYNVYQSEAHGLPLHLPGNKSPHRDPAPRGPARFLPLPGLPPAPPEPPGILAPQPPDVGSSDPLSMVGPSQGRSPSYAS",20.4 nM
4,"PEGylated FGF21 mutant G113C (ligand, 20 kDa methoxy-PEG-maleimide on Cys 113) MHPIPDSSPLLQFGGQVRQRYLYTDDAQQTEAHLEIREDGTVGGAADQSPESLLQLKALKPGVIQILGVKTSRFLCQRPDGALYGSLHFDPEACSFRELLLEDGYNVYQSEAHCLPLHLPGNKSPHRDPAPRGPARFLPLPGLPPAPPEPPGILAPQPPDVGSSDPLSMVGPSQGRSPSYAS",12 nM
